The source of these data is the supplement of paper PMC10567573.

This series in a line: protein stability index of a GFP-peptide fusion (GPS, HEK-293T) (PSI 1-6); higher = more stable.
Setting [1] is: treatment: DMSO, c terminus: a fixed tail appended.
Where [2] appears, read: treatment: MLN4924 1 uM, 8 h, c terminus: a fixed tail appended.
Where [3] appears, read: treatment: DMSO, c terminus: native.
[4] abbreviates: treatment: MLN4924 1 uM, 8 h, c terminus: native.

± gives the standard deviation.
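Further: 24-mer peptide tiles fused after GFP, lentivirally expressed, FACS-sorted into six equal bins by GFP/DsRed ratio, decoded by Illumina sequencing, PSI is the read-weighted mean bin number.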

For the sequence FETMAIEIEQLLARLTGVNDKMAE [GOSR1], the protein stability index reads like this: under setting [1], 3.06 ± 0.2; under setting [2], 3.15 ± 0.38.
The matching figures for FGHRFIILDTDEYVLKYMESNAAQ [EFHC1]: 2.25 ± 0.45 and 2.05 ± 0.31.
The matching figures for FHNAVSAYFAGNQKQLEQTLQQFN [ARFIP2]: 2.45 ± 0.23 and 2.34 ± 0.42.
For the sequence FHPDPRQKALYRRLATVHMSRMIN [CLPTM1], the protein stability index reads like this: under setting [1], 2.58 ± 0.55; under setting [2], 2.39 ± 0.25.
FHVDSAAEYYRLHLEGYHGTAGDS [TNXB]: the protein stability index under setting [1] worked out at 2.81 ± 0.27 and the protein stability index under setting [2] worked out at 3.17 ± 0.31.
Taken in the same sequence, the figures for FITRQLKGLEDTKSPQFNRYFYLL [PDS5B] were 2.01 ± 0.37 and 2.11 ± 0.16.
Taken in the same sequence, the figures for FIVLFLLWPFAWLQVAGLSEEQLQ [LPCAT4] were 2.65 ± 0.13 and 3.05 ± 0.59.
For the sequence FKHPSIRNPVSLVVTRLVILGSGE [ADAMTS4], under setting [2], the protein stability index stood at 3.03 ± 0.97.
As to FKRRRVRRRRMETIVFLDKEVFAS [PCMTD2], the protein stability index was found to be 2.62 ± 0.16 under setting [1] and 2.86 ± 0.33 under setting [2].
Take FLPHHIMVKIFRLLPTKSLVALKC [FBXO34]: the protein stability index worked out at 2.76 ± 0.39 under setting [1] and 2.29 ± 0.74 under setting [2].
Taken in the same sequence, the figures for FLRQKVLSLPLPDPLKYYLLYYRE [PCMTD2] were 2.24 ± 0.34 and 2.26 ± 0.31.
Taken in the same sequence, the figures for FLSSEKQICGTHRQTKKMFCDMDK [TRIM43] were 3.18 ± 0.33 and 3.4 ± 0.19.
Taken in the same sequence, the figures for FLTVGSVLQMWHIVDKCTELLREG [ZBTB22] were 3.09 ± 0.55 and 3.4 ± 0.32.
As for FLTYVPLLGLKAFLGLFFIVRFLE [FADS1], the protein stability index is 2.56 ± 0.6 under setting [1] and 2.17 ± 0.67 under setting [2].
Regarding FNDPFFIVETVCIVWFSFEFVVRC [KCNA4], the protein stability index is 3.38 ± 0.68 under setting [1] and 3.45 ± 0.98 under setting [2].
Turning to FPHPLWLRDTYKLWVPQPPPRTIK [PWWP2B], the protein stability index is, setting by setting: under setting [1], 2.33 ± 0.17; under setting [2], 2.71 ± 0.33.
Taken in the same sequence, the figures for FQEDVPMSTEEQYRIRQVNIYYYL [EFHC1] were 2.52 ± 0.78 and 2.22 ± 0.15.
For the sequence FQKSLVLISKLPYIHFFHTVLKQI [DENND6A], the protein stability index worked out at 2.67 ± 0.72 under setting [1] and 2.42 ± 0.63 under setting [2].
Taken in the same sequence, the figures for FRKEIKSKSADNQEYFERHRWPPV [RHOBTB1] were 3.45 ± 0.44 and 3.26 ± 0.16.
Taken in the same sequence, the figures for FSDVTFILDDGTISAHKPLLISSC [RHOBTB2] were 2.47 ± 0.15 and 2.25 ± 0.29.
The matching figures for FSKVKTSLGLDHCHSFISGTAPLN [ACSBG2]: 2.52 ± 0.3 and 2.44 ± 0.29.
Take FSPNSPQFNVSGPGLLEEDNQWMT [NECAB1]: the protein stability index under setting [1] turned out to be 3.23 ± 0.34 and the protein stability index under setting [2] was 3.58 ± 0.3.
FSRAPVSALPLAPNHLGGGAVVLG [STX5] had a protein stability index under setting [1] of 2.81 ± 0.11 and a protein stability index under setting [2] of 2.98 ± 0.17.
For FSTILHLLLGSPHPAATALHAELC [LPCAT4], the protein stability index is 3.14 ± 0.47 under setting [1] and 2.73 ± 0.53 under setting [2].
The sequence FTDCSFFVRGQEFKAHKSVLAARS [SPOPL] registered a protein stability index under setting [1] of 2.95 ± 0.69 and a protein stability index under setting [2] of 2.61 ± 0.57.
Taken in the same sequence, the figures for FVGAIFNGLTLLILGVIGLFTIPL [RTN2] were 2.02 ± 0.11 and 2.27 ± 0.42.
The matching figures for FVVMGVIGGLLGATFNCLNKRLAK [CLCN6]: 2.55 ± 0.39 and 2.7 ± 0.59.
Taken in the same sequence, the figures for FWEEHKASLGREESRAPSPLLHKD [CBY2] were 4.61 ± 0.17 and 4.71 ± 0.21.
On to FYAITTLHNLLLHQEGAKMAVRLA [CTNNB1], for which the protein stability index runs as follows: under setting [1], 3.02 ± 0.17; under setting [2], 2.79 ± 0.15.
Take GADREFIEARRRALKRFVNLVARH [SNX8]: the protein stability index worked out at 2.45 ± 0.15 under setting [1] and 2.64 ± 0.25 under setting [2].
With GAQMEKEWARALETRDWGGAQFEG [ZSWIM9], the protein stability index is 4.11 ± 0.26 under setting [1] and 4.22 ± 0.1 under setting [2].
The matching figures for GDFAWERVRGLGLPKLYLPTGPRR [CDKN1A]: 2.98 ± 0.32 and 3.32 ± 0.4.
The matching figures for GEDQAFGDWLLTANGSEIHKHVHF [SLC22A15]: 3.03 ± 0.26 and 3.09 ± 0.26.
Taken in the same sequence, the figures for GEEPVPHQQVEEALSFTLLGSAPL [NEK8] were 4.33 ± 0.22 and 4.32 ± 0.29.
On to GEEQAQLLHVSSPNLASDSDLSRR [KCNA1], for which the protein stability index runs as follows: under setting [1], 5.36 ± 0.16; under setting [2], 5.33 ± 0.11.
Taken in the same sequence, the figures for GEEQLKTHKKCKEEVVSTLDAVQV [FCHO1] were 4.13 ± 0.38 and 4.12 ± 0.19.
For GEKMVAAKVKGEKLDKKLKKMEQN [ATF4], the protein stability index by setting is: under setting [1], 5 ± 0.27; under setting [2], 4.76 ± 0.18.
As to GELLNMIVAVIDSAQLQELVCHVM [INTS3], the protein stability index under setting [1] stood at 2.92 ± 0.59 and the protein stability index under setting [2] was 2.6 ± 0.72.
Taken in the same sequence, the figures for GELRRRPGDMKTKMELLILETQAQ [CPOX] were 3.34 ± 0.18 and 3.43 ± 0.26.
The matching figures for GETRICKIYDSPCLPEAEAMFAIN [RAD51]: 3.53 ± 0.4 and 3.65 ± 0.35.
Consider GFFLLQLANHTGYIKVDWQRVEKD [FUNDC2], for which the protein stability index was 2.34 ± 0.69 under setting [1] and 2.11 ± 0.37 under setting [2].
Taken in the same sequence, the figures for GFGLAHTPLEPDAKDLPCDSKPES [TBX5] were 5.38 ± 0.51 and 5.47 ± 0.43.
Taken in the same sequence, the figures for GFIRFDKRIEAEEAIKGLNGQKPL [ELAVL3] were 3.66 ± 0.42 and 4.08 ± 0.49.
As to GGAAGAGWCIFVYNLSPEADESVL [ELAVL3], the protein stability index by setting is: under setting [1], 3.22 ± 1.1; under setting [2], 2.52 ± 0.91.
Taken in the same sequence, the figures for GGIPALVKMLGSPVDSVLFYAITT [CTNNB1] were 3.19 ± 0.79 and 3.07 ± 0.99.
Taken in the same sequence, the figures for GGSGGGGGGDEDGSLGSRAEPAPR [SMAD6] were 5.38 ± 0.21 and 5.41 ± 0.13.
The matching figures for GGSGGGSHHHHQSRGACTSHDPQS [KCNA4]: 5.08 ± 0.24 and 5.12 ± 0.33.
GISTGHWSGEVKDKNVQVVELPIV [FUT8] showed a protein stability index under setting [1] of 3.8 ± 0.31 and a protein stability index under setting [2] of 3.9 ± 0.37.
The matching figures for GKDCFLELAPDFVGDILWEHLEIL [ETS1]: 2.42 ± 0.54 and 2.05 ± 0.39.
The matching figures for GKSFCHSTHLTVHRRIHTGEKPYE [ZNF8]: 3 ± 0.16 and 3.35 ± 0.3.
As to GKSFNRHCNLIRHQKIHTVAELV [ZSCAN9], the protein stability index is, setting by setting: under setting [3], 2.08 ± 0.28; under setting [4], 2.05 ± 0.33.
Sequence GLKADTLKERYQKIGDTKRNTPIE [CSNK1G1] came in with a protein stability index under setting [1] of 4.36 ± 0.26 and a protein stability index under setting [2] of 4.53 ± 0.12.
For the sequence GLLLESLVPFIVNDNITNNFFRFL [DYNC2LI1], the protein stability index was determined as 2.9 ± 0.44 under setting [1] and 3.17 ± 0.62 under setting [2].
The matching figures for GNNLHNASIPEHLAYGSVITVKNL [POMT2]: 3.05 ± 0.37 and 3.02 ± 0.28.
The matching figures for GNQDYKYRVSDVTKAGHSLELIEP [VDR]: 4.24 ± 0.22 and 4.3 ± 0.26.
Taken in the same sequence, the figures for GNVKIDSQKLNFREHAKARVDHGA [MAP2] were 4.22 ± 0.14 and 4.23 ± 0.52.
As to GQSDFRPKNGRHAWIWHDCHRHYH [LOXL2], the protein stability index was 2.54 ± 0.29 under setting [1] and 3.03 ± 0.45 under setting [2].
The matching figures for GQVLHFENVKDVPFGFQTVTSDVN [SERPINB5]: 3.85 ± 0.36 and 3.84 ± 0.42.
In the case of GRKQPGVHEEPVLKKWPKLKSKK [C22orf31], the protein stability index reads like this: under setting [3], 5.16 ± 0.26; under setting [4], 5.08 ± 0.24.
Turning to GRLLLTLPLLRQTAGKVLAHFYGV [ESRRA], the protein stability index reads like this: under setting [1], 2.78 ± 0.54; under setting [2], 3.05 ± 0.88.
Taken in the same sequence, the figures for GRPKELQPKKLHLCPLCGKNFSNN [ZNF263] were 2.88 ± 0.46 and 3.58 ± 0.52.
Taken in the same sequence, the figures for GRTGTLIACYVMKHYRFTHAEIIA [CDC14A] were 2.74 ± 0.89 and 3.11 ± 0.45.
Taken in the same sequence, the figures for GSGGGYGGGMRVCGFGGGAGSVFG [KRT15] were 2.18 ± 0.29 and 2.34 ± 0.22.
GSKCSPEDLATAYNNRGQIKYFRV [TTC32]: the protein stability index under setting [1] is 2.16 ± 0.21 and the protein stability index under setting [2] was 2.13 ± 0.37.
For GSKEGNHHSTQPKRNKRNPIFQDS [FAM104B], the protein stability index under setting [1] stood at 4.57 ± 0.21 and the protein stability index under setting [2] amounted to 4.55 ± 0.3.
The matching figures for GSMEALNLKQLRKRGSIPTSLTAL [PPFIA4]: 3.11 ± 0.2 and 3.11 ± 0.22.
The matching figures for GSSGSYFVKDPQGRIIAVFKPKNE [PI4K2A]: 3.34 ± 0.16 and 3.66 ± 0.12.
As to GTQFTFDQDPSVLYFSIHRYEQGR [HDAC6], the protein stability index runs as follows: under setting [1], 2.31 ± 0.51; under setting [2], 2.52 ± 0.34.
The matching figures for GVTAIIFCVALSDYDLVLAEDEEM [GNAI1]: 3.86 ± 0.17 and 2.75 ± 0.9.
Taken in the same sequence, the figures for GVVMKVRIPTCHDKPGTTQIVQLT [DENND6A] were 2.02 ± 0.19 and 2.15 ± 0.4.
As to GWILIDRCGKHFGTILNYLRDGAV [KCTD10], the protein stability index reads like this: under setting [1], 3.08 ± 0.41; under setting [2], 2.38 ± 0.52.
Taken in the same sequence, the figures for GYQRKCYFISTVKRSWTSAQNACS [CD69] were 2.46 ± 0.66 and 1.85 ± 0.59.
